Legend:
HeLa Kyoto [1] = assay: solubility in G1/S (NP-40 vs SDS abundance) (log2 ratio); higher = more soluble; conditions: cell cycle stage: G1/S
HeLa Kyoto [2] = assay: thermal stability score vs G1/S (z-score of summed log2 fold changes over temperatures); higher = more thermally stable than in G1/S
HeLa Kyoto [3] = assay: melting temperature (median over replicates), in situ; higher = more thermally stable
HeLa Kyoto [4] = assay: solubility change mitosis vs G1/S (difference of NP-40 vs SDS log2 ratios) (log2 ratio difference); higher = more soluble in mitosis
[5] = cell cycle stage: early G1 (4.5 h after nocodazole release)
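Wherever melting temperature (median over replicates), in situ is given: HeLa Kyoto cells synchronized by double thymidine or nocodazole block, proteins quantified by TMT10plex mass spectrometry, three independent biological replicates.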
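Wherever solubility change mitosis vs G1/S (difference of NP-40 vs SDS log2 ratios) is given: synchronized HeLa Kyoto cells (double thymidine block for G1/S, nocodazole release for mitosis), protein amounts in NP-40 versus SDS lysates quantified by mass spectrometry, three biological replicates.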
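Wherever solubility in G1/S (NP-40 vs SDS abundance) is given: HeLa Kyoto cells arrested at G1/S by double thymidine block, proteins quantified by TMT10plex mass spectrometry in mild NP-40 versus SDS extracts, three biological replicates.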
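Wherever thermal stability score vs G1/S (z-score of summed log2 fold changes over temperatures) is given: synchronized HeLa Kyoto cells, proteins quantified by TMT10plex mass spectrometry, three biological replicates, mitosis taken 0.5 h after nocodazole release, G1/S directly after double thymidine block.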

| Substance | solubility in G1/S (log2) (HeLa Kyoto [1]) | thermal stability score (HeLa Kyoto [2]; [5]) | thermal stability score (HeLa Kyoto [2]; cell cycle stage: mitosis) | melting temperature (HeLa Kyoto [3]; cell cycle stage: G1/S) | melting temperature (HeLa Kyoto [3]; cell cycle stage: mitosis) | solubility change mitosis (log2) (HeLa Kyoto [4]) |
| --- | --- | --- | --- | --- | --- | --- |
| MNNSGADEIGKLFVGGLDWSTTQETLRSYFSQYGEVVDCVIMKDKTTNQSRGFGFVKFKDPNCVGTVLASRPHTLDGRNIDPKPCTPRGMQPERTRPKEGWQKGPRSDNSKSNKIFVGGIPHNCGETELREYFKKFGVVTEVVMIYDAEKQRPRGFGFITFEDEQSVDQAVNMHFHDIMGKKVEVKRAEPRDSKSQAPGQPGASQWGSRVVPNAANGWAGQPPPTWQQGYGPQGMWVPAGQAIGGYGPPPAGRGAPPPPPPFTSYIVSTPPGGFPPPQGFPQGYGAPPQFSFGYGPPPPPPDQFAPPGVPPPPATPGAAPLAFPPPPSQAAPDMSKPPTAQPDFPYGQYAGYGQDLSGFGQGFSDPSQQPPSYGGPSVPGSGGPPAGGSGFGRGQNHNVQGFHPYRR [DAZAP1] | 0.412 | -1.35 | -1.24 | 53.6 °C | 53.7 °C | -0.0921 |
| MAPPVAERGLKSVVWQKIKATVFDDCKKEGEWKIMLLDEFTTKLLASCCKMTDLLEEGITVVENIYKNREPVRQMKALYFITPTSKSVDCFLHDFASKSENKYKAAYIYFTDFCPDNLFNKIKASCSKSIRRCKEINISFIPHESQVYTLDVPDAFYYCYSPDPGNAKGKDAIMETMADQIVTVCATLDENPGVRYKSKPLDNASKLAQLVEKKLEDYYKIDEKSLIKGKTHSQLLIIDRGFDPVSTVLHELTFQAMAYDLLPIENDTYKYKTDGKEKEAILEEEDDLWVRIRHRHIAVVLEEIPKLMKEISSTKKATEGKTSLSALTQLMKKMPHFRKQITKQVVHLNLAEDCMNKFKLNIEKLCKTEQDLALGTDAEGQKVKDSMRVLLPVLLNKNHDNCDKIRAILLYIFSINGTTEENLDRLIQNVKIENESDMIRNWSYLGVPIVPQSQQGKPLRKDRSAEETFQLSRWTPFIKDIMEDAIDNRLDSKEWPYCSQCPAVWNGSGAVSARQKPRANYLEDRKNGSKLIVFVIGGITYSEVRCAYEVSQAHKSCEVIIGSTHVLTPKKLLDDIKMLNKPKDKVSLIKDE [STXBP3] | -0.0906 | -0.14 | 0.708 | 49 °C | 49 °C | -0.0474 |
| MAGPGPGPGDPDEQYDFLFKLVLVGDASVGKTCVVQRFKTGAFSERQGSTIGVDFTMKTLEIQGKRVKLQIWDTAGQERFRTITQSYYRSANGAILAYDITKRSSFLSVPHWIEDVRKYAGSNIVQLLIGNKSDLSELREVSLAEAQSLAEHYDILCAIETSAKDSSNVEEAFLRVATELIMRHGGPLFSEKSPDHIQLNSKDIGEGWGCGC [RAB43] | -0.224 | -0.0567 | 0.366 | 55.1 °C | 54.6 °C | 0.296 |
| MSDEREVAEAATGEDASSPPPKTEAASDPQHPAASEGAAAAAASPPLLRCLVLTGFGGYDKVKLQSRPAAPPAPGPGQLTLRLRACGLNFADLMARQGLYDRLPPLPVTPGMEGAGVVIAVGEGVSDRKAGDRVMVLNRSGMWQEEVTVPSVQTFLIPEAMTFEEAAALLVNYITAYMVLFDFGNLQPGHSVLVHMAAGGVGMAAVQLCRTVENVTVFGTASASKHEALKENGVTHPIDYHTTDYVDEIKKISPKGVDIVMDPLGGSDTAKGYNLLKPMGKVVTYGMANLLTGPKRNLMALARTWWNQFSVTALQLLQANRAVCGFHLGYLDGEVELVSGVVARLLALYNQGHIKPHIDSVWPFEKVADAMKQMQEKKNVGKVLLVPGPEKEN [VAT1] | 0.232 | -0.577 | -3.49 | 55.9 °C | 55.3 °C | -0.125 |
| MGRSGKLPSGVSAKLKRWKKGHSSDSNPAICRHRQAARSRFFSRPSGRSDLTVDAVKLHNELQSGSLRLGKSEAPETPMEEEAELVLTEKSSGTFLSGLSDCTNVTFSKVQRFWESNSAAHKEICAVLAAVTEVIRSQGGKETETEYFAALMTTMEAVESPESLAAVAYLLNLVLKRVPSPVLIKKFSDTSKAFMDIMSAQASSGSTSVLRWVLSCLATLLRKQDLEAWGYPVTLQVYHGLLSFTVHPKPKIRKAAQHGVCSVLKGSEFMFEKAPAHHPAAISTAKFCIQEIEKSGGSKEATTTLHMLTLLKDLLPCFPEGLVKSCSETLLRVMTLSHVLVTACAMQAFHSLFHARPGLSTLSAELNAQIITALYDYVPSENDLQPLLAWLKVMEKAHINLVRLQWDLGLGHLPRFFGTAVTCLLSPHSQVLTAATQSLKEILKECVAPHMADIGSVTSSASGPAQSVAKMFRAVEEGLTYKFHAAWSSVLQLLCVFFEACGRQAHPVMRKCLQSLCDLRLSPHFPHTAALDQAVGAAVTSMGPEVVLQAVPLEIDGSEETLDFPRSWLLPVIRDHVQETRLGFFTTYFLPLANTLKSKAMDLAQAGSTVESKIYDTLQWQMWTLLPGFCTRPTDVAISFKGLARTLGMAISERPDLRVTVCQALRTLITKGCQAEADRAEVSRFAKNFLPILFNLYGQPVAAGDTPAPRRAVLETIRTYLTITDTQLVNSLLEKASEKVLDPASSDFTRLSVLDLVVALAPCADEAAISKLYSTIRPYLESKAHGVQKKAYRVLEEVCASPQGPGALFVQSHLEDLKKTLLDSLRSTSSPAKRPRLKCLLHIVRKLSAEHKEFITALIPEVILCTKEVSVGARKNAFALLVEMGHAFLRFGSNQEEALQCYLVLIYPGLVGAVTMVSCSILALTHLLFEFKGLMGTSTVEQLLENVCLLLASRTRDVVKSALGFIKVAVTVMDVAHLAKHVQLVMEAIGKLSDDMRRHFRMKLRNLFTKFIRKFGFELVKRLLPEEYHRVLVNIRKAEARAKRHRALSQAAVEEEEEEEEEEEPAQGKGDSIEEILADSEDEEDNEEEERSRGKEQRKLARQRSRAWLKEGGGDEPLNFLDPKVAQRVLATQPGPGRGRKKDHGFKVSADGRLIIREEADGNKMEEEEGAKGEDEEMADPMEDVIIRNKKHQKLKHQKEAEEEELEIPPQYQAGGSGIHRPVAKKAMPGAEYKAKKAKGDVKKKGRPDPYAYIPLNRSKLNRRKKMKLQGQFKGLVKAARRGSQVGHKNRRKDRRP [RRP12] | -0.758 | 3.24 | 7.79 | 46.3 °C | 49 °C | 0.248 |
| MEKGLTLPQDCRDFVHSLKMRSKYALFLVFVVIVFVFIEKENKIISRVSDKLKQIPQALADANSTDPALILAENASLLSLSELDSAFSQLQSRLRNLSLQLGVEPAMEAAGEEEEEQRKEEEPPRPAVAGPRRHVLLMATTRTGSSFVGEFFNQQGNIFYLFEPLWHIERTVSFEPGGANAAGSALVYRDVLKQLFLCDLYVLEHFITPLPEDHLTQFMFRRGSSRSLCEDPVCTPFVKKVFEKYHCKNRRCGPLNVTLAAEACRRKEHMALKAVRIRQLEFLQPLAEDPRLDLRVIQLVRDPRAVLASRMVAFAGKYKTWKKWLDDEGQDGLREEEVQRLRGNCESIRLSAELGLRQPAWLRGRYMLVRYEDVARGPLQKAREMYRFAGIPLTPQVEDWIQKNTQAAHDGSGIYSTQKNSSEQFEKWRFSMPFKLAQVVQAACGPAMRLFGYKLARDAAALTNRSVSLLEERGTFWVT [CHST3] | 0.15 | -1.54 | -0.213 | 55.3 °C | 53.5 °C | -0.0403 |
| MAAVAGSGAAAAPSSLLLVVGSEFGSPGLLTYVLEELERGIRSWDVDPGVCNLDEQLKVFVSRHSATFSSIVKGQRSLHHRGDNLETLVLLNPSDKSLYDELRNLLLDPASHKLLVLAGPCLEETGELLLQTGGFSPHHFLQVLKDREIRDILATTPPPVQPPILTITCPTFGDWAQLAPAVPGLQGALRLQLRLNPPAQLPNSEGLCEFLEYVAESLEPPSPFELLEPPTSGGFLRLGRPCCYIFPGGLGDAAFFAVNGFTVLVNGGSNPKSSFWKLVRHLDRVDAVLVTHPGADSLPGLNSLLRRKLAERSEVAAGGGSWDDRLRRLISPNLGVVFFNACEAASRLARGEDEAELALSLLAQLGITPLPLSRGPVPAKPTVLFEKMGVGRLDMYVLHPPSAGAERTLASVCALLVWHPAGPGEKVVRVLFPGCTPPACLLDGLVRLQHLRFLREPVVTPQDLEGPGRAESKESVGSRDSSKREGLLATHPRPGQERPGVARKEPARAEAPRKTEKEAKTPRELKKDPKPSVSRTQPREVRRAASSVPNLKKTNAQAAPKPRKAPSTSHSGFPPVANGPRSPPSLRCGEASPPSAACGSPASQLVATPSLELGPIPAGEEKALELPLAASSIPRPRTPSPESHRSPAEGSERLSLSPLRGGEAGPDASPTVTTPTVTTPSLPAEVGSPHSTEVDESLSVSFEQVLPPSAPTSEAGLSLPLRGPRARRSASPHDVDLCLVSPCEFEHRKAVPMAPAPASPGSSNDSSARSQERAGGLGAEETPPTSVSESLPTLSDSDPVPLAPGAADSDEDTEGFGVPRHDPLPDPLKVPPPLPDPSSICMVDPEMLPPKTARQTENVSRTRKPLARPNSRAAAPKATPVAAAKTKGLAGGDRASRPLSARSEPSEKGGRAPLSRKSSTPKTATRGPSGSASSRPGVSATPPKSPVYLDLAYLPSGSSAHLVDEEFFQRVRALCYVISGQDQRKEEGMRAVLDALLASKQHWDRDLQVTLIPTFDSVAMHTWYAETHARHQALGITVLGSNSMVSMQDDAFPACKVEF [MAP1S] | 0.287 | -0.227 | -0.265 | 50.4 °C | 49.8 °C | -0.216 |
| CSPG4 | 0.0261 | -3.28 | 0.175 | 54.8 °C | 55 °C | 0.0955 |
| MAPGQLALFSVSDKTGLVEFARNLTALGLNLVASGGTAKALRDAGLAVRDVSELTGFPEMLGGRVKTLHPAVHAGILARNIPEDNADMARLDFNLIRVVACNLYPFVKTVASPGVTVEEAVEQIDIGGVTLLRAAAKNHARVTVVCEPEDYVVVSTEMQSSESKDTSLETRRQLALKAFTHTAQYDEAISDYFRKQYSKGVSQMPLRYGMNPHQTPAQLYTLQPKLPITVLNGAPGFINLCDALNAWQLVKELKEALGIPAAASFKHVSPAGAAVGIPLSEDEAKVCMVYDLYKTLTPISAAYARARGADRMSSFGDFVALSDVCDVPTAKIISREVSDGIIAPGYEEEALTILSKKKNGNYCVLQMDQSYKPDENEVRTLFGLHLSQKRNNGVVDKSLFSNVVTKNKDLPESALRDLIVATIAVKYTQSNSVCYAKNGQVIGIGAGQQSRIHCTRLAGDKANYWWLRHHPQVLSMKFKTGVKRAEISNAIDQYVTGTIGEDEDLIKWKALFEEVPELLTEAEKKEWVEKLTEVSISSDAFFPFRDNVDRAKRSGVAYIAAPSGSAADKVVIEACDELGIILAHTNLRLFHH [ATIC] | 0.0708 | -0.0275 | 1.16 | 54.4 °C | 54.4 °C | -0.093 |
| MNNSLENTISFEEYIRVKARSVPQHRMKEFLDSLASKGPEALQEFQQTATTTMVYQQGGNCIYTDSTEVAGSLLELACPVTTSVQPQTQQEQQIQVQQPQQVQVQVQVQQSPQQVSAQLSPQLTVHQPTEQPIQVQVQIQGQAPQSAAPSIQTPSLQSPSPSQLQAAQIQVQHVQAAQQIQAAEIPEEHIPHQQIQAQLVAGQSLAGGQQIQIQTVGALSPPPSQQGSPREGERRVGTASVLQPVKKRKVDMPITVSYAISGQPVATVLAIPQGQQQSYVSLRPDLLTVDSAHLYSATGTITSPTGETWTIPVYSAQPRGDPQQQSITHIAIPQEAYNAVHVSGSPTALAAVKLEDDKEKMVGTTSVVKNSHEEVVQTLANSLFPAQFMNGNIHIPVAVQAVAGTYQNTAQTVHIWDPQQQPQQQTPQEQTPPPQQQQQQLQVTCSAQTVQVAEVEPQSQPQPSPELLLPNSLKPEEGLEVWKNWAQTKNAELEKDAQNRLAPIGRRQLLRFQEDLISSAVAELNYGLCLMTREARNGEGEPYDPDVLYYIFLCIQKYLFENGRVDDIFSDLYYVRFTEWLHEVLKDVQPRVTPLGYVLPSHVTEEMLWECKQLGAHSPSTLLTTLMFFNTKYFLLKTVDQHMKLAFSKVLRQTKKNPSNPKDKSTSIRYLKALGIHQTGQKVTDDMYAEQTENPENPLRCPIKLYDFYLFKCPQSVKGRNDTFYLTPEPVVAPNSPIWYSVQPISREQMGQMLTRILVIREIQEAIAVANASTMH [QRICH1] | 0.184 | 3.16 | 5.23 | 47 °C | 49.3 °C | -0.197 |
| HSP90AB1 | -0.0892 | 0.311 | 0.779 | 51.3 °C | 51.1 °C | -0.125 |
